Experimental data as given in patent publication US20070286858A1 (Pfizer, published 2007).
Changes are numbered by the printed parent chain.

Legend:
[1] = target: T1, human RAGE-Fc fusion protein (human, UniProt Q15109 23-344); test: antibody competition ELISA on hRAGE-Fc; competitor biotinylated XT-M4
T1 construct: also called hRAGE-Fc; huRAGE-Fc; not shown: Fc domain of human IgG

[2] = target: T1, human RAGE-Fc fusion protein; test: ligand competition ELISA, panel Blocks hRAGE-Fc interaction with A-beta; blocked ligand amyloid beta 1-42 peptide
baboon RAGE = target: T2, baboon RAGE (baboon (Papio cyanocephalus), UniProt Q15109 23-404 (human entry)); test: cell-based ELISA, 293 cells transfected with baboon RAGE
T2 construct: On transfected 293 cells or endogenous in baboon lung sections; also called 293-baboon RAGE; RAGE in baboon lung
T2 chain: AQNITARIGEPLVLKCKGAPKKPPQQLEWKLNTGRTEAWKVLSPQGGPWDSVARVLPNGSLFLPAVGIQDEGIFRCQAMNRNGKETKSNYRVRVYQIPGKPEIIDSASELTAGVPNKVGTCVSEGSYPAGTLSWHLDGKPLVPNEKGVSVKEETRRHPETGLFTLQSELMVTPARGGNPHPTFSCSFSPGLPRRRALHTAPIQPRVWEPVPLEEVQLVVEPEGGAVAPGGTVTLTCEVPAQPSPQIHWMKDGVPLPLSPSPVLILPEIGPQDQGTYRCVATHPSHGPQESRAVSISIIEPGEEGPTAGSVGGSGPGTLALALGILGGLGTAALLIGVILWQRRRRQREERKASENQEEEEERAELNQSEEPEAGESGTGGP
Method: (§1) Human embryonic kidney 293 cells (American Tissue Type Culture, Manassas, Va.) cells were plated at 5×10⁶ cells per 10 cm² tissue culture plate and cultured overnight at 37° C. The next day cells were transfected with RAGE expression plasmids (pAdori1-3 vector encoding mouse, human, baboon, cynomologus monkey or rabbit RAGE) using LF2000 reagent (Invitrogen, Carlsbad Calif.) at a 4:1 ratio of reagent to plasmid DNA using the manufacturers protocol. Cells were harvested 48 hrs post-transfection using trypsin, washed once with phosphate buffered saline (PBS), then suspended in growth media without serum at a concentration of 2×10⁶ cells/ml.
(§2) Primary antibodies at 1 μg/ml were serially diluted at 1:2 or 1:3 in PBS containing 1% bovine serum albumin (BSA) in a 96-well plate. RAGE-transfected 293 cells or control parental 293 cells (50 μl) at 2×10⁶ cells/ml in serum-free growth medium were added to U-bottom 96 well plate for a final concentration of 1×10⁵ cells/well. The cells were centrifuged at 1600 rpm for 2 minutes. The supernatants were gently discarded by hand with a one-time swing and the plate was patted gently to loose the cell pellet. […] The cells were centrifuged and the supernatants are transferred to a fresh plate and read at 450 nm (Soft MAX pro 4.0, Molecular Devices Corporation, Sunnyvale, Calif.).

[3] = target: T1, human RAGE-Fc fusion protein; test: direct binding ELISA, coated hRAGE-Fc
Method: (§3) Antibodies were purified from hybridoma supernatants using standard procedures. Purified antibodies were evaluated for binding to soluble forms of RAGE with the use of ELISA. […] After washing and blocking with PBS containing 1% BSA and 0.05% Tween-20, 100 ul of sample (samples were in several forms: diluted immune serum, hybridoma supernatants, or purified antibodies, as indicated) was added and incubated for 1 hour at room temperature. The plates were washed with PBS, pH 7.2 and bound anti-RAGE antibodies were detected with the use of peroxidase-conjugated goat, anti-mouse IgG (H+L) (IgG) (Pierce, Rockford, Ill.) followed by incubation with the substrate TMB (BioFX Laboratories Owings Mills, Md. Laboratories). Absorbance values were determined at 450 nm in a spectrophotometer. The concentrations of monoclonal antibodies were determined with the use of peroxidase-labeled goat, anti-mouse IgG (Fcγ) (Pierce Rockford, Ill.) and a standard curve was generated by a purified, isotype-matched mouse IgG.

[4] = target: T3, human RAGE V-region-Fc fusion protein (human, UniProt Q15109 23-118); test: direct binding ELISA, coated hRAGE V-region-Fc
T3 construct: also called hRAGE V-domain-Fc; hRAGE-V-Fc (CM); not shown: Fc domain of human IgG
Method: as §3

cynomolgus monkey RAGE = target: T4, cynomolgus monkey RAGE (cynomolgus monkey (Macaca fascicularis), UniProt Q15109 23-404 (human entry)); test: cell-based ELISA, 293 cells transfected with cynomolgus monkey RAGE
T4 construct: On transfected 293 cells or endogenous in monkey lung sections; also called 293-cyno monkey RAGE; RAGE in monkey lung
T4 chain: T2 chain with R347G
Method: as §1, §2

human RAGE, full length = target: T5, human RAGE, full length (human, UniProt Q15109 23-404); test: cell-based ELISA, 293 cells transfected with human RAGE
T5 construct: Expressed on 293 or CHO cells, or endogenous in human lung sections; also called hRAGE; cell-surface hRAGE
Method: as §1, §2

[5] = target: T1, human RAGE-Fc fusion protein; test: ligand competition ELISA, panel Blocks hRAGE-Fc interaction with HMGB1; blocked ligand HMGB1
Method: Wells were washed and blocked as described above and exposed to 100 μl of pre-incubated mixtures of RAGE-Fc or TrkB-Fc (a non-specific Fc control), at 0.1 μg/ml, plus various forms of the indicated antibody preparation (dilutions of immune sera, hybridoma supernatants or purified antibodies) for 1 hour at room temperature.

B1: XT-M4 (antibody, rat IgG2b, V domains shown)
VH: EVQLVESGGGLVQPGRSLKLSCVVSGFTFNNYWMTWIRQTPGKGLEWVASINNSGDNTYYPDSVKDRFTISRDNAKSTLYLQMNSLRSEDTATYYCTRGGDITTGFDYWGQGVMVTVSS
VL: DIQMTQSPSSMSVSLGDTITITCRASQDVGIYVNWFQQKPGKSPRRMIYRATNLADGVPSRFSGSRSGSIYSLTISSLESEDVADYHCLEFDEHPLTFGSGTKVEIK
notes: also called 1mRAGEP3/10; rat XT-M4
With B1 the “IC50 (read off the curve)” value [1] was roughly 0.4 µg/mL, the “IC50 (read off the curve)” value [2] was roughly 0.2 µg/mL and the EC50 (baboon RAGE) was roughly 1.33 nM. For the same binder, the EC50 [3] was 0.3 nM, the EC50 [4] was 0.1 nM and the EC50 (cynomolgus monkey RAGE) was roughly 2.33 nM. For the same binder, the EC50 (human RAGE, full length) was roughly 0.84 nM and the “IC50 (read off the curve)” value [5] was roughly 0.1 µg/mL.
